Key:
Test in all cases: Kd (EC50 corrected by depletion factor)
CPSF2 = molecular target: T1, CPSF2 (UniProt Q9P2I0)
T1 sequence: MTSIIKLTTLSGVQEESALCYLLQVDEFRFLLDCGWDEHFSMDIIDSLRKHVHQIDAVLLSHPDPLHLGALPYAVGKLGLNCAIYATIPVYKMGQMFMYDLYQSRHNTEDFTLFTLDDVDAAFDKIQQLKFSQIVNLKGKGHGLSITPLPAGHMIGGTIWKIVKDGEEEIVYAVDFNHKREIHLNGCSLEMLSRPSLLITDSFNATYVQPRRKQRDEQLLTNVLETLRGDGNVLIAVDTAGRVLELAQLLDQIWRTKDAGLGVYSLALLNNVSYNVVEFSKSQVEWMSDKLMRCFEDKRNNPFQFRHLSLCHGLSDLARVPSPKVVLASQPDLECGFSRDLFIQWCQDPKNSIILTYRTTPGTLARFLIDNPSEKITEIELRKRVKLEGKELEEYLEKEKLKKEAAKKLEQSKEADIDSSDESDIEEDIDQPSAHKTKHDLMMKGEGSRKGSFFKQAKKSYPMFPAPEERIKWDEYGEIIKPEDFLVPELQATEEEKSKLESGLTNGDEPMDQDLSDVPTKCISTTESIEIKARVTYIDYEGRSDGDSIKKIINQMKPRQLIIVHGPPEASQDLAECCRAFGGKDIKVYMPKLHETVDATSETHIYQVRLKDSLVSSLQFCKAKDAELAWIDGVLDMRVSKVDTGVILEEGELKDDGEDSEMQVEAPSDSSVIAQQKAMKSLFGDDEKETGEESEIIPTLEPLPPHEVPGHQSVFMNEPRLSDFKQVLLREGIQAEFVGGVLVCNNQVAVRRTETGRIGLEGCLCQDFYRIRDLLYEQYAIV
How it was run: (§1)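 Over three biological replicates and two independent experiments, proteins captured on NHS-Sepharose beads carrying 5′-amino-C6 RNA oligos were quantified by label-free LC-MS/MS and normalised to the control. Capture lasted 30 min at 4°C and followed a 1 h pre-incubation at 4°C of HEK293-FT lysate (2.5 mg protein/well) with the same oligos in free form (0 nM to 30 μM). EC50 was taken from a four-parameter log-logistic fit, and Kd was EC50 corrected by a protein-dependent depletion factor.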

SYMPK = molecular target: T2, SYMPK (UniProt Q92797)
T2 sequence: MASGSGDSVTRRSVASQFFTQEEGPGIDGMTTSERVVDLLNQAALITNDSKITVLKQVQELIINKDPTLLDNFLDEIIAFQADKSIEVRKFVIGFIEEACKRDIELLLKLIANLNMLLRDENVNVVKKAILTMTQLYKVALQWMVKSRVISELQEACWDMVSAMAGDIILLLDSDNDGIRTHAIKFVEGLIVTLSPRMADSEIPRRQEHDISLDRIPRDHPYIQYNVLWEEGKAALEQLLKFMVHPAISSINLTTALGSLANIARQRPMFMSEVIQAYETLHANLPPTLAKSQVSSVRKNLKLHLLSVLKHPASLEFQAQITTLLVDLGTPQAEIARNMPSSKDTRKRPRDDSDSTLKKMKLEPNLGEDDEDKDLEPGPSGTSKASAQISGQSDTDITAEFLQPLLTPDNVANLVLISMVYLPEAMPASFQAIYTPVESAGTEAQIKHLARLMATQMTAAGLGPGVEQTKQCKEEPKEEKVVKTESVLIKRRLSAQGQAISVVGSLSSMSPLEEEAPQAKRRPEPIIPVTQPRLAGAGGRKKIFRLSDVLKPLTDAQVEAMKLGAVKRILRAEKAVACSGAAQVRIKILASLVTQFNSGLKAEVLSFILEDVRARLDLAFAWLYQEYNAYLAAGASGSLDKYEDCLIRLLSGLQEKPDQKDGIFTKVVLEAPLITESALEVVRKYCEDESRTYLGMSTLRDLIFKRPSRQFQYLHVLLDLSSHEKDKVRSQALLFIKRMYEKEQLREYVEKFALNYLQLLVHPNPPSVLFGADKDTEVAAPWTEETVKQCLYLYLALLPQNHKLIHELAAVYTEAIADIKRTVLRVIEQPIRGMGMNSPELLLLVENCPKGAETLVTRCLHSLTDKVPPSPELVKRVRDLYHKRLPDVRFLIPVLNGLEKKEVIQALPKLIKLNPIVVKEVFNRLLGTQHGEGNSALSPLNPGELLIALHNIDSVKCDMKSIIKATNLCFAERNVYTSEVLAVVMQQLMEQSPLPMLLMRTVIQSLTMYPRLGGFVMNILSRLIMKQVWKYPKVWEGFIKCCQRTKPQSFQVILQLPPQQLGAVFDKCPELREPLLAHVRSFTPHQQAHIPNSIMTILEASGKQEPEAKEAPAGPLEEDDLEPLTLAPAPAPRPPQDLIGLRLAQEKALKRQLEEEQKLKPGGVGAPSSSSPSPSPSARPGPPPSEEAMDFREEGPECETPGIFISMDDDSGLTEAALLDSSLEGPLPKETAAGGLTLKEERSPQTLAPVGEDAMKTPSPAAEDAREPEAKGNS
How it was run: as §1

ELAVL1 = ELAVL1 (UniProt Q15717)
How it was run: as §1

RBMS3 = molecular target: T3, RBMS3 (UniProt Q6XE24)
T3 sequence: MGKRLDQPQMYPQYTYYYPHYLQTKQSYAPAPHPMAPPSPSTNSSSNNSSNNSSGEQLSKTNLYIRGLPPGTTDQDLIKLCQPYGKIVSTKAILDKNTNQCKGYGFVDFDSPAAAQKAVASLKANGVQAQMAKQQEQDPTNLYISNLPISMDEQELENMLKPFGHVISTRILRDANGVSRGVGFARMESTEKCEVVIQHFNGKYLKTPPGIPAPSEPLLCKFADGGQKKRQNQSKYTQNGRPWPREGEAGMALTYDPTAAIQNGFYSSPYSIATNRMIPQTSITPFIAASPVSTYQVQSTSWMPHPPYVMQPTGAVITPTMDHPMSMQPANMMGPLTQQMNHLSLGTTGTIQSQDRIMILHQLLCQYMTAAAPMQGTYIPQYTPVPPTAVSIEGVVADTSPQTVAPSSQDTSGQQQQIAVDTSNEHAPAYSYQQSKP
How it was run: as §1

PABPC1 = PABPC1 (UniProt P11940)
How it was run: as §1

Sequence of ELAVL1 (Q15717 whole entry): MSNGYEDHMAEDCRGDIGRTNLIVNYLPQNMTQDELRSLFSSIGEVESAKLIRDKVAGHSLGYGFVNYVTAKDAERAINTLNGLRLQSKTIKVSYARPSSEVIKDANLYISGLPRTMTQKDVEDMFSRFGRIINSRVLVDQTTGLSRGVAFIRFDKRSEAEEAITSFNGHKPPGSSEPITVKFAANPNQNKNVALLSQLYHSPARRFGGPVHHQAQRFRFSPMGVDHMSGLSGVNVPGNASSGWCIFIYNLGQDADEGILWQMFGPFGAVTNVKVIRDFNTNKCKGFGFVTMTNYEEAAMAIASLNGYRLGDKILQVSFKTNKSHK
Sequence of PABPC1 (P11940 whole entry): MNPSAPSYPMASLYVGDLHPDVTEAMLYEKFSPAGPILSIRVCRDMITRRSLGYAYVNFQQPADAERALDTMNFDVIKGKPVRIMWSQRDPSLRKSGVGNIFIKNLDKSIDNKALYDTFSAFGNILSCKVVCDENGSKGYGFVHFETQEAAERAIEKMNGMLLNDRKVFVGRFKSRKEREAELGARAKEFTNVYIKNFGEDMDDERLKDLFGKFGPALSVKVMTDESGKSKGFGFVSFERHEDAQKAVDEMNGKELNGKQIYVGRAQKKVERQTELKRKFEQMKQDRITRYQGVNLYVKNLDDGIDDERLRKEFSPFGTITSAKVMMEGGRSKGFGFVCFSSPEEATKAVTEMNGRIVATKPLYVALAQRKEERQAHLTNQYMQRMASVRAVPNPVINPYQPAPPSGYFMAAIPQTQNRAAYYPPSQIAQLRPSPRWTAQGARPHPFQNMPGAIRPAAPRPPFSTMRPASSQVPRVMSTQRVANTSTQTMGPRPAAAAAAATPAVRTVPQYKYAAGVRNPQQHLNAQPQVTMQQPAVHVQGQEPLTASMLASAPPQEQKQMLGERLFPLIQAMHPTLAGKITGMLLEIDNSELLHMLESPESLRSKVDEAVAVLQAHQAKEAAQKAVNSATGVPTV

Sequence | Kd (CPSF2) [µM] | Kd (SYMPK) [µM] | Kd (ELAVL1) [µM] | Kd (RBMS3) [µM] | Kd (PABPC1) [µM]
UAUUUAU | 0.452 | 0.254 | 0.92 | 0.0973 | –
AAUAAA | 0.00566 | 0.0127 | 0.44 | 0.153 | 7.49
CUGUCCU | – | – | – | – | 0.0959
